From article PMC9313104 (Biomedicines, 2022)
Entries after “also recorded” stand apart in the source; their conditions may differ. Read-outs that look alike come from different tables or passages of the source.

Experiments:
duck Na,K-ATPase [1] = target: T1, duck Na,K-ATPase (Anas platyrhynchos, UniProt Q7ZYV1); assay type: binding; conditions: 25 °C, pH 7.5, unit not given
Description: (§1) Purified preparation of Na,K-ATPase was obtained from duck salt glands as described elsewhere.
(§2) Experiments were carried out at 25 °C in four buffers, as described elsewhere: (E2P buffer) 10 mM imidazole, 3 mMTris/Pi, 1 mM EDTA, 3 mM MgCl2, 0.1 mM DTT, pH 7.5; (E1/E2 buffer) 10 mM imidazole, 130 mM NaCl, 20 mM KCl, 3 mM MgCl2, 0.1 mM DTT, pH 7.5; (E1 buffer) 10 mM imidazole, 1 mM EDTA, 3 mM NaCl, 0.1 mM DTT, pH 7.5; (E2 buffer) 10 mM imidazole, 1 mM EDTA, 3 mM KCl, and 0.1 mM DTT, pH 7,5. […] Aliquots (2.6 μL) of ligands were injected into a 0.24 mL cell containing the protein solution to achieve a complete binding isotherm. […] Equivalent amounts of DMSO was added to protein solutions to avoid thermal effects of dissolution.
(§3) The effective heat of binding was obtained by subtracting the heat of dilution from the heat of reaction. MicroCal Origin software was used to fit isothermal titration curves. […] The Gibbs energy and enthalpy changes […] were estimated according to the equations: ∆G = −RT lnKa and ∆G = ∆H − T∆S.

Na,K-ATPase [2] = test system: Na,K-ATPase; design: method as in 2 sources, one per row (each row's own in cited_ref): ref [10],[18] = [10]; PMID 30210292; doi:10.3389/fnmol.2018.00302; 10. Barykin E.P. Petrushanko I.Y. Kozin S.A. Telegin G.B. Chernov A.S. Lopina O.D. Radko S.P. Mitkevich V.A. Makarov A.A. Phosphorylation of the Amyloid-Beta Peptide Inhibits Zinc-Dependent Aggregatio || [18]; PMID 27296892; doi:10.1038/srep27738; 18. Petrushanko I.Y. Mitkevich V.A. Anashkina A.A. Adzhubei A.A. Burnysheva K.M. Lakunina V.A. Kamanina Y.V. Dergousova E.A. Lopina O.D. Ogunshola O.O. Direct Interaction of Beta-Amyloid with Na,K-ATP ||| ref [39] = [39]; PMID 26297827; doi:10.1016/j.febslet.2015.08.011; 39. Klimanova E.A. Petrushanko I.Y. Mitkevich V.A. Anashkina A.A. Orlov S.N. Makarov A.A. Lopina O.D. Binding of Ouabain and Marinobufagenin Leads to Different Structural Changes in Na,K-ATPase and De; conditions: ref [39]; cited from earlier work
duck Na,K-ATPase [3] = target: T1, duck Na,K-ATPase; experiment: Isothermal titration calorimetry (MicroCal iTC200), Aβ42 binding to Na,K-ATPase in different states; conditions: 25 °C; for T∆S, entropy variation: calculated from ∆G = ∆H − T∆S; for ∆H, enthalpy variation: three to four measurements, SD did not exceed ±10%
Description: Briefly, the peptide was dissolved in hexafluoroisopropanol (Fluka), dried, and stored at −80 °C. Before the experiment, the peptide was dissolved in DMSO for 1 h and then diluted in the buffer solution.
as §1, §2, §3

Na,K-ATPase [4] = conditions: ref [18]; cited from earlier work
Excerpt: (§4) Here we study the binding interface of Aβ with Na,K-ATPase. Na,K-ATPase creates a sodium/potassium gradient, and inhibition of pump activity by Aβ leads to impairment of electrotonic properties of neurons.

[5] = test system: neuroblastoma cells SH-SY5Y; conditions: ref [18]; cited from earlier work
Excerpt: as §4

[6] = hexafluoroisopropanol, dried, DMSO for 1 h, diluted in buffer; ref [18]; cited from earlier work
Description: Aβ42 peptide was synthesized by Biopeptide. […] Briefly, the peptide was dissolved in hexafluoroisopropanol (Fluka), dried, and stored at −80 °C. Before the experiment, the peptide was dissolved in DMSO for 1 h and then diluted in the buffer solution.

[7] = Na,K-ATPase in complex with Aβ42
[8] = enzyme in E2P conformation (without Aβ42)
[9] = OBN state (26 µM ouabain), pH 7.5

Row | Molecule | T∆S (duck Na,K-ATPase [1]; [7]) | ∆H (duck Na,K-ATPase [1]; [7]) | T∆S (duck Na,K-ATPase [1]; [8]) | ∆H (duck Na,K-ATPase [1]; [8]) | Na,K-ATPase conformation bound (Na,K-ATPase [2]) | T∆S, entropy variation (duck Na,K-ATPase [3]; E1/E2 state, pH 7.5) [kJ/mol] | ∆H, enthalpy variation (duck Na,K-ATPase [3]; E1/E2 state, pH 7.5) [kJ/mol] | T∆S, entropy variation (duck Na,K-ATPase [3]; E1 state, pH 7.5) [kJ/mol] | ∆H, enthalpy variation (duck Na,K-ATPase [3]; E1 state, pH 7.5) [kJ/mol] | T∆S, entropy variation (duck Na,K-ATPase [3]; E2P state, pH 7.5) [kJ/mol] | ∆H, enthalpy variation (duck Na,K-ATPase [3]; E2P state, pH 7.5) [kJ/mol] | Ka, affinity constant (duck Na,K-ATPase [3]; E2 state, 10 mM imidazole, 1 mM EDTA, 3 mM KCl, 0.1 mM DTT, pH 7.5, measured three to four times, SD did not exceed ±20%) [M⁻¹] | T∆S, entropy variation (duck Na,K-ATPase [3]; E2 state, pH 7.5) [kJ/mol] | ∆H, enthalpy variation (duck Na,K-ATPase [3]; E2 state, pH 7.5) [kJ/mol] | T∆S, entropy variation (duck Na,K-ATPase [3]; [9]) [kJ/mol] | ∆H, enthalpy variation (duck Na,K-ATPase [3]; [9]) [kJ/mol] | Aβ42 binding to Na,K-ATPase in complex with ouabain compared with free enzyme (duck Na,K-ATPase [3]; OBN state, sequential titration with ouabain then Aβ42 in E2P buffer) | effect of complex formation on enzyme hydrolytic activity (Na,K-ATPase [4]) | effect of exogenous Aβ42 on enzyme transport and hydrolytic activity [5] | form present in the solution [6]
1 | C[C@@H]1O[C@@H](O[C@H]2C[C@@H](O)[C@]3(CO)[C@H]4[C@H](O)C[C@]5(C)[C@@H](C6=CC(=O)OC6)CC[C@]5(O)[C@@H]4CC[C@]3(O)C2)[C@H](O)[C@H](O)[C@H]1O [ouabain] | −10.8 | −20.2 ± 0.7 | −4.2 | −13.7 ± 0.2 | binds predominantly to the E2P conformation | – | – | – | – | – | – | – | – | – | – | – | – | – | – | –
2 | Aβ42: Aβ42 peptide was synthesized by Biopeptide | – | – | – | – | – | 22.9 | -10.6 | 25.2 | -6.44 | 25.9 | -6.65 | 490000 | 23.2 | -9.25 | 28.7 | -5.06 | in the same way as the free enzyme; also recorded: did not change | dose-dependent inhibition of enzyme hydrolytic activity | pronounced decrease in enzyme transport and hydrolytic activity | mainly in the monomeric form
